The subject of the assay is template containing 5-Nitroindole. Description: Primer extension opposite 5-nitroindole. The format is biochemical. Conditions: clones from five rounds of selection. The protocol:
50 pmol of ^32P-labelled primer and 100 pmol of template in a volume of 44 μl were annealed in 1× Taq buffer. 4D11 or 5D4 polymerase as cell lysate (6 μl) was added and reactions were incubated at 50° C. for 15 minutes followed by addition of one dNTP (1 μl in total volume of 50 μl, final dNTP concentration 40 μM). 8 μl samples were taken at various time points and added to 8 μl stop solution (7M urea, 100 mM EDTA containing xylene cyanol F). At the end of the time course the remaining 3 dNTPs were added (final concentration each dNTP 40 μM) and reactions incubated at 50° C. for a further 30 minutes. Reaction samples were electrophoretically separated using 20% polyacrylamide gels at 25 W for 4 hours. The resultant gels were dried and scanned using a phosphorimager (Molecular Dynamics). Data was processed using the program ImageQuant (Molecular Dynamics).

B1: 5D4: round 5 clone selected for replication of 5NI; SEQ ID NO: 109 (protein)
chain: MAMLPLFEPKGRVLLVDGHHLAYRTFFALKGLTTSRGEPVQAVYGFAKSLLKALKEDGYKAIFVVFDAKAPSFRHEAHEAYKAGRAPSPEDFPRQLALIKELVDLLGFTRLEVQGYEADDVLATLAKKAEKEGYEVRILTADRDLYQLVSDRVAVLHPEGHLITPEWLWEKYGLRPEQWVDFRALVGDPSDNLPGVKGIGEKTALKLLKEWGSLENLLKNLDRLKPAIREKILAHMDDLKLSWDLAKVRTDLPLEVDFAKRRESDRERLRAFLERLEFGSLLHEFGLLESPKALEEAPWPPPVGAFVGFVLSRKEPMWADLLALAAARGGRVHRAPEPYKALRDLKEARGLLAKDLSVLALREGLGLPPGDDPMLLAYLLDPSNTTPEVVARRYGGEWTEEAGERAALSERLFANLWGRLEGEGRLLWLYRGVERPLSAVLAHMEATGVRLDVAYLRALSLEVAEEIARLEAEVFRLAGHPFNLNSRDQLERVLFDELGLPAIGKTEKTGKRSTSAAVLEALREAHPIVEKILQYRELTKLKSTYIDPLPDLIHPRTGRLHTRFNQTATATGRLSSSDPNLQNIPVRTPLGQRIRRAFIAEGGWLLVVLDYSQMELRVLAHLSGDENLIRVFQEGRDIHTETASWMFGVPREAVDPLMRRAAKTINFGVLYGMSAHRLSQELAIPYEEAQAFIERYFQSFPKVRAWIEKTLEEGRKRGYVETLFGRRRYVPDLNARVKSVREAAERMAFNMPVQGTAADLTKLAMVKLFPRLEETGARMLLQVHDELVLEAPKERAEAVARLAKEVMEGVYPLAVPLEVEVGIGEDWLSAKG
modifications: Mutant Taq polymerase
As to B1, the “ability to replicate 5NI” value is “greatly increased ability to replicate 5NI”.

B2: 4D11: round 4 clone selected for replication of 5NI; SEQ ID NO: 107 (protein)
chain: MAMLPLFEPKGRVLLVDGHHLAYRTFFALKGLTTSRGEPVQAVYGFAKSLLKALKEDGYKAVFVVFDAKAPSFRHEAYEAYKAGRAPTPEDFPRQLALIKELVDLLGFTRLEVQGYEADDVLATLAKKAEKEGYEVRILTADRDLYQLVSDRVAVLHPEGHLITPEWLWEKYGLRPEQWVDFRALVGDPSDNLPGIKGIGEKTALKLLKEWGSLENLLKNLDRVKPENVREKIKAHLEDLRLSLELSRVRTDLPLEVDFAKRREPDRERLRAFLERLEFGSLLHEFGLLESPKALEEAPWPPPEGAFVGFVLSRKEPMWADLLALAAAKGGRVHRAPEPYKALRDLKEARGLLAKDLSVLALREGLGLPPGDDPMLLAYLLDPSNTTPEGVARRYGGEWTEEAGERAALSERLFANLWGRLEGEERLLWLYREVERPLSAVLAHMEATGVRLDVAYLRALSLEVAEEIARLEAEVFRLAGHPFNLNSRDQLERVLFDELGLPAIGKTEKTGKRSTSAAVLEALREAHPIVEKILQYRELTKLKSTYIDPLPDLIHPRTGRLHTRFNQTATATGRLSSSDPNLQNIPVRTPLGQRIRRAFIAEGGWLLVVLDYSQMELRVLAHLSGDENLIRVFQEGRDIHTETASWMFGVPREAVDPLMRRAAKTINFGVLYGMSAHRLSQELAIPYEEAQAFIERYFQSFPKVRAWIEKTLEEGRRRGYVETLFGRRRYVPDLEARVKSVREAAERMAFNMPVQGTAADLMKLAMVKLFPRLEETGARMLLQVHDELVLEAPKERAEAVARLAKEVMEGVYPLAVPLEVEVGIGEDWLSAKE
modifications: Mutant Taq polymerase
Regarding B2, the “ability to replicate 5NI” value is given as “greatly increased ability to replicate 5NI”.

Source of the values: patent US9096835B2, “DNA polymerase” (Medical Research Council, priority 2003, dated 2015).
